Molecular target: T1, EDC4 (endogenous, EBOV-infected cells) (UniProt Q6P2E9 1-1401)
T1 sequence: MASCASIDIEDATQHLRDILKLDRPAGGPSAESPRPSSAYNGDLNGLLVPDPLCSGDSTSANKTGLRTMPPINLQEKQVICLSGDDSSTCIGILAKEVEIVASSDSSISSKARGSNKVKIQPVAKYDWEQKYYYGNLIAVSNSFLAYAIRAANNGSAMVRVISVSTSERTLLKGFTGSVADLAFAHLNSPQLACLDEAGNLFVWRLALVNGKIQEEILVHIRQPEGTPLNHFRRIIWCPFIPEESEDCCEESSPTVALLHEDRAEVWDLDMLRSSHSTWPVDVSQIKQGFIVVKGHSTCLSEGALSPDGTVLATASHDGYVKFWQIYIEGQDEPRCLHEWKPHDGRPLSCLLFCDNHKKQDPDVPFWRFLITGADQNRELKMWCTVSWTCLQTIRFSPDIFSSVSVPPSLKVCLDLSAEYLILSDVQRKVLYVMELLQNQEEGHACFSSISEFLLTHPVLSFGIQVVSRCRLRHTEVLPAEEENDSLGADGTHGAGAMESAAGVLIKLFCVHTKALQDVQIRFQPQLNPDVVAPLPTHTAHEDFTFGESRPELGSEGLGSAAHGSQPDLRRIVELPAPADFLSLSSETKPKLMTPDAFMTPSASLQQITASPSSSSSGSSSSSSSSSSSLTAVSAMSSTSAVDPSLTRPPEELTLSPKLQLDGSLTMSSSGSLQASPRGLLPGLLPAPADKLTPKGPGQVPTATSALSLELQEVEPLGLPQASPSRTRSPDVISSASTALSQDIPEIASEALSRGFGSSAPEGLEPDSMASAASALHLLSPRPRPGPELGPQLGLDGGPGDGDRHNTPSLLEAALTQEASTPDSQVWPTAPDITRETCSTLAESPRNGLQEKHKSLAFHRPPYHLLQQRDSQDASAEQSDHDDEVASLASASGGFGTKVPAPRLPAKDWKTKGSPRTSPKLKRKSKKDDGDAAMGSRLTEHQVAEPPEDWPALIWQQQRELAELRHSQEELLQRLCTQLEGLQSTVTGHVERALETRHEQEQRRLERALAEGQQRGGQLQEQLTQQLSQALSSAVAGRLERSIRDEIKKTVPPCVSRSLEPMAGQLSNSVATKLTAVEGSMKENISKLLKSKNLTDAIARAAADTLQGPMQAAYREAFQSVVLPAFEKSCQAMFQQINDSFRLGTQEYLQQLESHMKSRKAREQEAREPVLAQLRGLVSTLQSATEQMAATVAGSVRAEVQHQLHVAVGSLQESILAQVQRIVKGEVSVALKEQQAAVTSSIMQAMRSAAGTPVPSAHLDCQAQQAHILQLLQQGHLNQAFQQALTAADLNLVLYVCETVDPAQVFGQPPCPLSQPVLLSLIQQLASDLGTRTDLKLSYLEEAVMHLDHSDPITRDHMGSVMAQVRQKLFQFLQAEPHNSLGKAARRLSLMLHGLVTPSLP
Assay: proximity ligation
Conditions: partners not purified

B1: VP35 made by EBOV in infected cells (natural protein)
chain: MTTRTKGRGHTAATTQNDRMPGPELSGWISEQLMTGRIPVSDIFCDIENNPGLCYASQMQQTKPNPKTRNSQTQTDPICNHSFEEVVQTLASLATVVQQQTIASESLEQRITSLENGLKPVYDMAKTISSLNRVCAEMVAKYDLLVMTTGRATATAAATEAYWAEHGQPPPGPSLYEESAIRGKIESRDETVPQSVREAFNNLNSTTSLTEENFGKPDISAKDLRNIMYDHLPGFGTAFHQLVQVICKLGKDSNSLDIIHAEFQASLAEGDSPQCALIQITKRVPIFQDAAPPVIHIRSRGDIPRACQKSLRPVPPSPKIDRGWVCVFQLQDGKTLGLKI
PLA puncta per cell, fold over uninfected cells: 6 fold
